Test results taken from patent US20240245799A1, “PREPARATION METHOD FOR ANTIBODY-DRUG CONJUGATE, AND APPLICATION” (priority 2021, published 2024).

What was measured:
[1] = tested on: NCI-H2170, LK-2 and MDA-MB-231 tumor cells; assay: In vitro cytotoxic activity test, overall statements on the tumor cells of Table 1; assay type: cell-based, human; conditions: statement on Table 1
Method: Human lung squamous carcinoma cell NCI-H2170 and LK-2, and human breast cancer cell MDA-MB-231 were selected as the cell lines for in vitro activity detection in this experiment. The expression profile of the TROP2 antigen on the surfaces of the above human tumor cells (represented by rMFI) was determined by flow cytometry (FACS). At the same time, the dose-effect profiles of Antibody Conjugate 13, DS-1062a (the control drug, prepared according to the method described in U.S. Ser. No. 11/173,213B2), the hIgG-deruxtecan conjugate and the hIgG-A-11 conjugate on cell killing were observed. The final concentrations of the antibody drug conjugates after addition were designed as a series of 9 concentrations from […] with 500 nM as the initial concentration. The changes in killing (or inhibition) over 120 hours were observed. Chemiluminescence staining (Luminescent Cell Viability Assay) was carried out, and IC50 was calculated after reading the […] data.

[2] = tested on: Human lung squamous carcinoma cells NCI-H2170; assay: In vivo anti-tumor experiment, subcutaneous NCI-H2170 xenograft; set-up: species or system female nude mice; conditions: single dose of 5 mg/kg intravenously on day 0, FIG. 28
Method: The efficacy of the combination of the present invention can be measured in vivo, i.e., an allograft or xenograft of cancer cells was implanted in rodents, and the tumors were treated with the combination. Test mice were treated with drugs or controls and monitored for several weeks or longer to measure the time to tumor doubling, log cell killing, and tumor inhibition.
Human lung squamous carcinoma cells NCI-H2170 (ATCC) were suspended in physiological saline. 4×10^7 cells were subcutaneously transplanted into the right flank of female nude mice, which were randomized into groups on day 6. Taking the grouping day as day 0, Antibody Conjugate 13, DS-1062a (the positive control drug) and the hIgG-A-11 conjugate as a negative control group were administered intravenously to the tail at a dose of 5 mg/kg respectively on day 0.

B1: DS-1062a (conjugate, chains of the INN, looked up)
VH: QVQLVQSGAEVKKPGASVKVSCKASGYTFTTAGMQWVRQAPGQGLEWMGWINTHSGVPKYAEDFKGRVTISADTSTSTAYLQLSSLKSEDTAVYYCARSGFGSSYWYFDVWGQGTLVTVSS
VL: DIQMTQSPSSLSASVGDRVTITCKASQDVSTAVAWYQQKPGKAPKLLIYSASYRYTGVPSRFSGSGSGTDFTLTISSLQPEDFAVYYCQQHYITPLTFGQGTKLEIK
modifications: deruxtecan payload
[1]
  inhibition of tumor cell proliferation / in vitro anti-tumor activity: could inhibit tumor cell proliferation significantly
[2]
  in vivo anti-tumor activity: showed anti-tumor activity
